Values belong to the substance of their own block, whether it stands above or below them.
Columns and labels:
[1] = molecular target: truncated soluble human FcRn of the FcRn binding ELISAs (hFcRn-GST or biotinylated human FcRn; the form is not told for the panel) (UniProt P55899)
[2] = molecular target: truncated soluble biotinylated mouse FcRn lacking the transmembrane domain (mouse | not stated) (UniProt Q61559)
[3] = molecular target: human FcRn coupled to the FcRn retention column (UniProt P55899); experiment: analytical FcRn affinity chromatography; 100 μg NIP IgG1 variant injected over a human FcRn retention column at pH 6.0, eluted by a pH gradient 6.0 to 8.8 over 110 min (20 mM MES, 140 mM NaCl pH 6.0; 20 mM Tris/HCl, 140 NaCl pH 8.8)
[4] = molecular target: truncated soluble human FcRn of the FcRn binding ELISAs (hFcRn-GST or biotinylated human FcRn; the form is not told for the panel) (UniProt P55899); remark: listed apart in the source
[5] = molecular target: anti-NIP IgG1 DHS (human); experiment: SPR; IgG variants amine-coupled to CM5 chips (300 RU), serial dilutions of monomeric hFcRn-His injected; phosphate buffer pH 6.0, 25 °C, 50 µl/min; 1:1 Langmuir model
anti-NIP IgG1 KF (human) = experiment: as above
anti-NIP IgG1 LS (human) = experiment: as above
[6] = molecular target: anti-NIP IgG1 Q311R/M428E/N434W (REW) (human); experiment: as above
anti-NIP IgG1 WT (human) = experiment: as above
[7] = molecular target: anti-NIP IgG1 YTE (human); experiment: as above
[8] = molecular target: anti-NIP IgG1 YTE/KF (human); experiment: as above
[9] = molecular target: anti-NIP IgG2 REW (human); experiment: as above
anti-NIP IgG2 WT (human) = experiment: as above
[10] = molecular target: anti-NIP IgG3 R435H/REW (human); experiment: as above
anti-NIP IgG3 WT (human) = experiment: as above
[11] = molecular target: anti-NIP IgG4 REW (human); experiment: as above
anti-NIP IgG4 WT (human) = experiment: as above
[12] = molecular target: recombinant etanercept WT; experiment: as above
[13] = molecular target: anti-NIP human IgG1 Q311R/M428E/N434W (REW) (human); experiment: SPR; Biacore 3000; NIP IgG1 variants amine-coupled (300 RU) to CM5 chips; serial dilutions of monomeric hFcRn-His injected at pH 6.0 (phosphate), 50 μl/min, 25 °C; Langmuir 1:1 model

Substance: anti-NIP human IgG2 Q311R/M428E/N434W (REW) (antibody)
plasma half-life in Tg32 mice preloaded with IVIg [4]: 276 h

Substance: anti-NIP human IgG2 wild type (antibody)
plasma half-life in Tg32 mice preloaded with IVIg [4]: 202 h

Substance: truncated soluble His6x tagged human FcRn lacking the transmembrane domain (hFcRn-His), monomeric fraction (from UniProt P55899 24-297; P61769 21-119) (receptor)
fold lower KD than WT [13]: 20 fold

Results, then the substance that gave them:

plasma half-life after i.v. injection (5 mg/kg) in human FcRn transgenic mice (Tg32) preloaded with IVIg [1]: 341 h
plasma half-life in conventional mice, against WT [2]: 2 fold
pH of elution from the FcRn column [3]: 7.58 pH
Substance: anti-NIP human IgG1 Q311R/M428E/N434W (REW) (antibody)

plasma half-life after i.v. injection (5 mg/kg) in human FcRn transgenic mice (Tg32) preloaded with IVIg [1]: 187 h
pH of elution from the FcRn column [3]: 6.95 pH
Substance: anti-NIP human IgG1 wild type (antibody)

Kd [5]: 40.3 nM
koff [5]: 0.0304 s⁻¹
kon [5]: 756000 M⁻¹ s⁻¹
Kd (anti-NIP IgG1 KF (human)): 15.9 nM
koff (anti-NIP IgG1 KF (human)): 0.0122 s⁻¹
kon (anti-NIP IgG1 KF (human)): 770000 M⁻¹ s⁻¹
Kd (anti-NIP IgG1 LS (human)): 13.7 nM
koff (anti-NIP IgG1 LS (human)): 0.0058 s⁻¹
kon (anti-NIP IgG1 LS (human)): 422000 M⁻¹ s⁻¹
Kd [6]: 8.39 nM
koff [6]: 0.0055 s⁻¹
kon [6]: 653000 M⁻¹ s⁻¹
Kd (anti-NIP IgG1 WT (human)): 171 nM
koff (anti-NIP IgG1 WT (human)): 0.0825 s⁻¹
kon (anti-NIP IgG1 WT (human)): 483000 M⁻¹ s⁻¹
Kd [7]: 28.2 nM
koff [7]: 0.0168 s⁻¹
kon [7]: 594000 M⁻¹ s⁻¹
Kd [8]: 3.44 nM
koff [8]: 0.003 s⁻¹
kon [8]: 871000 M⁻¹ s⁻¹
Kd [9]: 13.3 nM
koff [9]: 0.0075 s⁻¹
kon [9]: 570000 M⁻¹ s⁻¹
Kd (anti-NIP IgG2 WT (human)): 388 nM
koff (anti-NIP IgG2 WT (human)): 0.0536 s⁻¹
kon (anti-NIP IgG2 WT (human)): 138000 M⁻¹ s⁻¹
Kd [10]: 10.3 nM
koff [10]: 0.007 s⁻¹
kon [10]: 674000 M⁻¹ s⁻¹
Kd (anti-NIP IgG3 WT (human)): 525 nM
koff (anti-NIP IgG3 WT (human)): 0.177 s⁻¹
kon (anti-NIP IgG3 WT (human)): 337000 M⁻¹ s⁻¹
Kd [11]: 13.1 nM
koff [11]: 0.008 s⁻¹
kon [11]: 606000 M⁻¹ s⁻¹
Kd (anti-NIP IgG4 WT (human)): 1280 nM
koff (anti-NIP IgG4 WT (human)): 0.123 s⁻¹
kon (anti-NIP IgG4 WT (human)): 95800 M⁻¹ s⁻¹
Kd [12]: 346 nM
koff [12]: 0.12 s⁻¹
kon [12]: 348000 M⁻¹ s⁻¹
Substance: truncated soluble His6x tagged human FcRn lacking the transmembrane domain (hFcRn-His) (from UniProt P55899 24-297; P61769 21-119) (receptor)

From publication PMC10920689
